{"source": "patent US9394555B2", "about": "“Compositions comprising a polypeptide having cellulolytic enhancing activity and a dioxy compound and uses thereof” (priority 2010, dated 2016)", "molecules": {"B1": {"name": "A. oryzae CEL3A beta-glucosidase: CEL3A beta-glucosidase (SEQ ID NO: 112), recombinantly prepared as described in WO 2004/099228 (protein, listed as Aspergillus oryzae)", "chain": "MKLGWIEVAALAAASVVSAKDDLAYSPPFYPSPWADGQGEWAEVYKRAVDIVSQMTLTEKVNLTTGTGWQLERCVGQTGSVPRLNIPSLCLQDSPLGIRFSDYNSAFPAGVNVAATWDKTLAYLRGQAMGEEFSDKGIDVQLGPAAGPLGAHPDGGRNWEGFSPDPALTGVLFAETIKGIQDAGVIATAKHYIMNEQEHFRQQPEAAGYGFNVSDSLSSNVDDKTMHELYLWPFADAVRAGVGAVMCSYNQINNSYGCENSETLNKLLKAELGFQGFVMSDWTAHHSGVGAALAGLDMSMPGDVTFDSGTSFWGANLTVGVLNGTIPQWRVDDMAVRIMAAYYKVGRDTKYTPPNFSSWTRDEYGFAHNHVSEGAYERVNEFVDVQRDHADLIRRIGAQSTVLLKNKGALPLSRKEKLVALLGEDAGSNSWGANGCDDRGCDNGTLAMAWGSGTANFPYLVTPEQAIQNEVLQGRGNVFAVTDSWALDKIAAAARQASVSLVFVNSDSGEGYLSVDGNEGDRNNITLWKNGDNVVKTAANNCNNTVVIIHSVGPVLIDEWYDHPNVTGILWAGLPGQESGNSIADVLYGRVNPGAKSPFTWGKTRESYGSPLVKDANNGNGAPQSDFTQGVFIDYRHFDKFNETPIYEFGYGLSYTTFELSDLHVQPLNASRYTPTSGMTEAAKNFGEIGDASEYVYPEGLERIHEFIYPWINSTDLKASSDDSNYGWEDSKYIPEGATDGSAQPRLPASGGAGGNPGLYEDLFRVSVKVKNTGNVAGDEVPQLYVSLGGPNEPKVVLRKFERIHLAPSQEAVWTTTLTRRDLANWDVSAQDWTVTPYPKTIYVGNSSRKLPLQASLPKAQ"}}, "type_in_all_cases": "biochemical", "key": {"[1]": {"target": "T1, T. aurantiacus GH61A polypeptide (Thermoascus aurantiacus, UniProt G3XAP7, N13Y)", "T1 sequence (G3XAP7 whole entry N13Y)": "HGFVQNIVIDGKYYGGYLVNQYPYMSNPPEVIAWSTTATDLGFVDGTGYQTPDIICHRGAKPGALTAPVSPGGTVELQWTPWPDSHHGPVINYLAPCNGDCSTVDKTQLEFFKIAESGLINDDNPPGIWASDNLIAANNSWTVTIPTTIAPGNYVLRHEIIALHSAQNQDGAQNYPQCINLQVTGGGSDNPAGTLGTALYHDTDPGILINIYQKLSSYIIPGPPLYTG", "assay": "Bacterial cellulose conversion assay (Examples 15, 16)", "conditions": "A. oryzae CEL3A beta-glucosidase (50 mg protein per g cellulose) only; 72 hours, 50° C.", "experimental": "Bacterial cellulose was prepared from NATA DE COCO (Huerto International Trading, Lucena City, Philippines) by extensive rinsing of one 500 ml can of cubes with water followed by homogenation for 15 minutes in 0.25 M sodium hydroxide using a WARING BLENDER® (Waring Products, Torrington, Conn., USA). The resulting slurry was pelleted at 40,000×g in a SORVALL® RT7 centrifuge. The supernatant was discarded. The pellet was then resuspended in 0.25 M sodium hydroxide and stirred overnight at 4° C. This procedure was repeated four times. Following the first washing steps, the cellulose was washed six times under similar conditions, substituting water for 0.25 M sodium hydroxide. Following the water washing, the cellulose was again homogenized for 15 minutes in a WARING BLENDER®, and adjusted to a final volume of 250 ml.\nA 0.36% bacterial cellulose slurry was prepared as described in Example 14. This 0.36% slurry was thoroughly resuspended by shaking, and quickly transferred to a 100 ml beaker and stirred rapidly with a magnetic stirrer. Seven hundred μl aliquots of the bacterial cellulose slurry were pipetted into wells of a 2.0 ml 96-deepwell plate (Axygen, Union City, Calif.) using a 1000 μl micropipette with a wide aperture tip (end of tip cut off about 2 mm from the base). One hundred μl of 10 mM MnSO4-500 mM sodium acetate pH 5 was then added to each well. One hundred μl of either deionized water, a 1% gallic acid solution dissolved in water, or a 1% gallic acid solution containing 50 mM EDTA were added to each well. Enzyme mixtures were prepared and then added simultaneously to all wells in a volume of 100 μl, for a total of 1 ml in each reaction. […] All experiments reported were performed in triplicate.\n(§1) Primary analysis of the hydrolysis reactions was performed using an AGILENT® 1100 HPLC with CHEMSTATION® software equipped with an AMINEX™ HPX-87H column. After approximately 4 days, the deep-well plate was removed from the incubator and chilled overnight to 4° C. The plate was then mixed well by inversion and briefly centrifuged 52×g in a SORVALL® RT7 centrifuge for 10 seconds. Samples were then mixed by pipetting, and 200 μl from each well were transferred to a MULTISCREEN® HV centrifuge filter plate assembly. The centrifuge filter plate assembly was centrifuged at 2000 rpm in a SORVALL® RT7 centrifuge for 20 minutes. […] Sugars were detected using a refractive index detector with quantification by integration compared to purified sugar standards.\n(§2) All HPLC data processing was performed using MICROSOFT EXCEL™ software. […] In this assay only glucose was measured since beta-glucosidase was at high levels in all samples but the controls. Percent conversion was determined using Equation 1. Triplicate data points were averaged and standard deviation was calculated.\nThe bacterial cellulose hydrolysis assay was performed as described in Example 15.\nData was collected and analyzed, as described in Example 15, after 72 hours of incubation at 50° C."}, "[2]": {"target": "T1, T. aurantiacus GH61A polypeptide", "assay": "Phosphoric acid swollen cellulose (PASC) conversion assay (Examples 20, 21)", "conditions": "A. oryzae CEL3A beta-glucosidase (20 mg protein per g cellulose) only; 72 hours, 50° C.", "experimental": "A 1.0% PASC slurry was prepared as described in Example 17. Ten ml of the 1.0% PASC slurry, 10 ml of H2O, and […] of dioxy compound were thoroughly mixed by shaking,\nFive hundred μl aliquots of the 0.50% phosphoric acid swollen cellulose/0.05% dioxy compound slurry were pipetted into wells of a 2.0 ml 96-deepwell plate (Axygen, Union City, Calif., USA) using a 1000 μl micropipette with a wide aperture tip (end of tip cut off about 2 mm from the base). One hundred μl of 10 mM MnSO4-500 mM sodium acetate pH 5 were then added to each well. Two hundred μl of deionized water were added to each well. Enzyme mixtures were prepared and then added simultaneously to all wells in a volume of 200 μl, for a total of 1 ml in each reaction. […] All experiments reported were performed in triplicate.\nas §1\nas §2, with “calculated” for “determined”\nThe PASC assay was performed as described in Example 20.\nData were collected and analyzed, as described in Example 20, after 72 hours of incubation at 50° C."}, "[3]": {"target": "T1, T. aurantiacus GH61A polypeptide", "assay": "Phosphoric acid swollen cellulose (PASC) hydrolysis assay (Examples 18, 19)", "conditions": "A. oryzae CEL3A beta-glucosidase (20 mg protein per g cellulose) only; 72 hours, 50° C.", "experimental": "A 1% phosphoric acid swollen cellulose (PASC) slurry was prepared from AVICEL® PH101 using the protocol described by Zhang et al., 2006, Biomacromolecules 7: 644-648.\nThe 1.0% PASC slurry prepared as described in Example 17 was thoroughly resuspended by shaking, and quickly transferred to a 100 ml beaker and stirred rapidly with a magnetic stirrer. Five hundred μl aliquots of the 1.0% PASC slurry were pipetted into wells of a 2.0 ml 96-deepwell plate (Axygen, Union City, Calif., USA) using a 1000 μl micropipette with a wide aperture tip (end of tip cut off about 2 mm from the base). One hundred μl of 10 mM MnSO4-500 mM sodium acetate pH 5 were then added to each well. […]\nPrimary analysis of the hydrolysis reactions was performed using an AGILENT® 1100 HPLC with CHEMSTATION® software equipped with an AMINEX™ HPX-87H column. […] Sugars were detected using a refractive index detector with quantification by integration compared to purified sugar standards.\nas §2, with “calculated” for “determined”, “calculated. […]” for “calculated.”\nData were collected and analyzed, as described in Example 18, after 72 hours of incubation at 50° C."}}}
{"molecule": "B1", "values": [{"measurement": "conversion of the bacterial cellulose", "setting": "[1]", "result": "2.4±2.9", "unit": "%"}, {"measurement": "conversion of the phosphoric acid swollen cellulose", "setting": "[2]", "result": "2.0±0.1", "unit": "%"}, {"measurement": "conversion of PASC", "setting": "[3]", "result": "2.4±0.5", "unit": "%"}]}
